Experimental data reported in US20260078196A1 (TJ BIOPHARMA SHANGHAI, published 2026).

B1: 4B-8F2 (bispecific antibody, human IgG1, kappa)
heavy: not shown
light: DVVMTQTPLTLSVTIGQPASISCKSSQSLLHSNGKTYLNWLLQRPGQSPNLLIYLVSKLESGVPDRFSGSGSGTDFTLKISRVEAEDLGVYYCLQATYFPYTFGSGTKLEIKRTVAAPSVFIFPPSDEQLKSGTASVVCLLNNFYPREAKVQWKVDNALQSGNSQESVTEQDSKDSTYSLSSTLTLSKADYEKHKVYACEVTHQGLSSPVTKSFNRGEC
notes: Chimeric ROR1 x 4-1BB BsAb; also called 8F2 IgG x 4-1BB VHH
B2: 4B-10C9 (bispecific antibody, human IgG1, kappa)
heavy: not shown
light: DVVMTQTPLTLSVAIGQPASISCKSSQSLLHINGKTYLNWLLQRPGQSPKLLIYLVSKLESGVPDRFSGSGSGTDFTLKISRVEAEDLGVYYCLQATHFPYTFGSGTKLEIKRTVAAPSVFIFPPSDEQLKSGTASVVCLLNNFYPREAKVQWKVDNALQSGNSQESVTEQDSKDSTYSLSSTLTLSKADYEKHKVYACEVTHQGLSSPVTKSFNRGEC
notes: also called 10C9 IgG x 4-1BB VHH
B3: D30 (antibody, V domains shown)
VH: QVQLVQSGAEVKKPGSSVKVSCKASGGTFSSYAISWVRQAPGQGLEWMGGIIPIFGTANYAQKFQGRVTITADESTSTAYMELSSLRSEDTAVYYCARANFNIYYYYYGMDVWGQGTLVTVSS
VL: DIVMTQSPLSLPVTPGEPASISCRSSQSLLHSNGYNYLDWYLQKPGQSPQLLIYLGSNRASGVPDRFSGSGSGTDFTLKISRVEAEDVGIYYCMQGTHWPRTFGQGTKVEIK
notes: Anti-MUC16 mAb
B4: 4-1BB VHH (VHH)
VHH: QVQLQESGGGLVQPGGSLRLSCAASGYTYSSNCMGWFRQAPGKGLEGVAVICTGGGSPSYADSVKGRFTISRDNAKNTLYLQMNSLRAEDTAVYYCAADLLRAGTPLSSYEFNYWGQGTLVTVSS
B5: D46 (antibody, V domains shown)
VH: QVQLVQSGAEVKKPGSSVKVSCKASGGTFSSYAISWVRQAPGQGLEWMGRIIPIFGIANYAQKFQGRVTITADKSTSTAYMELSSLRSEDTAVYYCAITGDYDILTGSYYYGMDVWGQGTTVTVSS
VL: NIQLTQSPSSLSASVGDRVTITCRASQGIRNDLGWYQQKPGKAPKLLIYAASSLQSGVPSRFSGSGSGTDFTLTISSLQPEDFATYYCLQDYNYPFTFGPGTKVDIK
notes: Anti-MUC16 mAb
B6: C25 (antibody, V domains shown)
VH: EVQLLESGAEVKKPGSSVKVSCKASGGTFSSYAISWVRQAPGQGLEWMGGIIPIFGTANYAQKFQGRVTITADESTSTAYMELSSLRSEDTAVYYCARDSRKYYYDSSGPALWGFDAFDIWGQGTMVTVSS
VL: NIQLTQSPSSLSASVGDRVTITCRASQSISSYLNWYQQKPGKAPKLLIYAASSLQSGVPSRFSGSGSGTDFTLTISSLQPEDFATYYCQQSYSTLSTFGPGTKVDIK
notes: Anti-MUC16 mAb from a human naive Fab phage library; also called MUC16-C25
B7: 4B-10C9 (second entry of Table 6A, with 9C9 VH and 9C9 VL) (bispecific antibody, human IgG1, kappa)
heavy: not shown
light: DIVLTQSPAITAASLGQKVTITCSASSSVTYMHWYQQKSGTSPKLWIYDISKLASGVPARFSGSGPGTSYSLTISTMEAEDAAIYYCQQWNYPLMTFGGGTKLEIKRTVAAPSVFIFPPSDEQLKSGTASVVCLLNNFYPREAKVQWKVDNALQSGNSQESVTEQDSKDSTYSLSSTLTLSKADYEKHKVYACEVTHQGLSSPVTKSFNRGEC
notes: Label 4B-10C9 is printed twice; this entry holds the 9C9 variable domains and is probably meant as 4B-9C9; also called 10C9 IgG x 4-1BB VHH (label as printed)
B8: 4B-3C5 (bispecific antibody, human IgG1, kappa)
heavy: not shown
light: DIKMTQSPSSMYASLGERVSITCRASQDIYSYLSWFQQKPGKSPKTLIYRANRLVDGVPSRFSGSGSGQDYSLTISSLEYEDMGIYYCLQYDEFPYTFGGGTKLEIKRTVAAPSVFIFPPSDEQLKSGTASVVCLLNNFYPREAKVQWKVDNALQSGNSQESVTEQDSKDSTYSLSSTLTLSKADYEKHKVYACEVTHQGLSSPVTKSFNRGEC
notes: Chimeric ROR1 x 4-1BB BsAb; also called 3C5 IgG x 4-1BB VHH

Assays:
ROR1 on cells = biological target: T1, ROR1 on cells (UniProt Q01973 30-937); experiment: flow cytometry (gMFI) on A549 cells
T1 construct: whole, on cells; also called ROR1 endogenous expressed tumor cell A549; ROR1-positive tumor cell lines

4-1BB on cells = biological target: T2, 4-1BB on cells (human, UniProt Q07011 24-255); experiment: flow cytometry (gMFI) on HEK293-h4-1BB cells
T2 construct: Species is stated as human for section 2.2 as a whole, not for each cell line; also called HEK293 cells expressing 4-1BB; 4-1BB overexpressed HEK293 cell

human MUC16 on cells [1] = biological target: T3, human MUC16 on cells (human, UniProt Q8WXI7 1-14507); experiment: flow cytometry (GMFI) on OVCAR3 cells, nM is the unit of the x axis Log10[Ab] (nM)
T3 construct: whole, on cells; also called huMUC16; MUC16 on OVCAR3 and SNU216 cells

[2] = biological target: T4, HEK293-MUC16 (13810-14507) (human, UniProt Q8WXI7 13810-14507); experiment: flow cytometry (MFI GeoMean) on HEK293-MUC16 (13810-14507) cells, nM is the unit of the x axis Log10[Ab] (nM)
T4 construct: range 13810-14507; also called MUC16 overexpressed HEK293 cells
T4 sequence: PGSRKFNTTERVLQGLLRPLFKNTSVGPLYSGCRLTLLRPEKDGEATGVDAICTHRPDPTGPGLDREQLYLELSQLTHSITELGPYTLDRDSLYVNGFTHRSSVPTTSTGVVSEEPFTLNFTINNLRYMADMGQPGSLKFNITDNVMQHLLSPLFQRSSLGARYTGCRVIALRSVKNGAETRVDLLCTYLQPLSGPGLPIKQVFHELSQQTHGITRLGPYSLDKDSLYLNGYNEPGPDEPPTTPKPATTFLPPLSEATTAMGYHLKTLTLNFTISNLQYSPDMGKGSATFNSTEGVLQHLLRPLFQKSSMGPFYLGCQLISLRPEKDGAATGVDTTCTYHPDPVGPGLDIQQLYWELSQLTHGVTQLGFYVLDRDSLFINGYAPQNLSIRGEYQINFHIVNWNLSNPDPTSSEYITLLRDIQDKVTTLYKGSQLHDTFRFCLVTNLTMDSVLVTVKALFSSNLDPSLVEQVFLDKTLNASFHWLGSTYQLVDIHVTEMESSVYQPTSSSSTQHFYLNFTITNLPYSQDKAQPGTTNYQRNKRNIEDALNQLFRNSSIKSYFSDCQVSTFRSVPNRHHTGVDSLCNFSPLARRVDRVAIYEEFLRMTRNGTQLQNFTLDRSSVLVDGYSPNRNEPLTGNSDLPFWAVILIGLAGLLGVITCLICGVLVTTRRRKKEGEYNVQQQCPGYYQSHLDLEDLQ

huMUC16, AA14198-14507 = biological target: T5, huMUC16, AA14198-14507; experiment: binding ELISA on huMUC16 AA14198-14507
T5 chain: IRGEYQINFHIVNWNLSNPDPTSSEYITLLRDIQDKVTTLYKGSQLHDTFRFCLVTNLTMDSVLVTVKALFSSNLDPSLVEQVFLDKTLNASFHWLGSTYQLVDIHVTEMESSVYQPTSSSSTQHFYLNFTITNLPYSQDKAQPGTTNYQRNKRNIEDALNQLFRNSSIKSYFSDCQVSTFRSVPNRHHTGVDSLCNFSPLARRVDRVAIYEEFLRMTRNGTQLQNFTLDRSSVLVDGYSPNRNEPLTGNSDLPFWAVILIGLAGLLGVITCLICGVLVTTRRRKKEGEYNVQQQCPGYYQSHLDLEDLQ

human MUC16 on cells [3] = biological target: T3, human MUC16 on cells; experiment: flow cytometry (MFI GeoMean) on OVCAR3 cells, nM is the unit of the x axis Log10[Ab] (nM)
human MUC16 on cells [4] = biological target: T3, human MUC16 on cells; experiment: flow cytometry (MFI GeoMean) on SNU216 cells, nM is the unit of the x axis Log10[Ab] (nM)
huMUC16, AA13789-14451 = biological target: T6, huMUC16, AA13789-14451; experiment: binding ELISA on huMUC16 AA13789-14451
T6 construct: also called MUC16 Antigen (human MUC16 AA13789-14451)
T6 chain: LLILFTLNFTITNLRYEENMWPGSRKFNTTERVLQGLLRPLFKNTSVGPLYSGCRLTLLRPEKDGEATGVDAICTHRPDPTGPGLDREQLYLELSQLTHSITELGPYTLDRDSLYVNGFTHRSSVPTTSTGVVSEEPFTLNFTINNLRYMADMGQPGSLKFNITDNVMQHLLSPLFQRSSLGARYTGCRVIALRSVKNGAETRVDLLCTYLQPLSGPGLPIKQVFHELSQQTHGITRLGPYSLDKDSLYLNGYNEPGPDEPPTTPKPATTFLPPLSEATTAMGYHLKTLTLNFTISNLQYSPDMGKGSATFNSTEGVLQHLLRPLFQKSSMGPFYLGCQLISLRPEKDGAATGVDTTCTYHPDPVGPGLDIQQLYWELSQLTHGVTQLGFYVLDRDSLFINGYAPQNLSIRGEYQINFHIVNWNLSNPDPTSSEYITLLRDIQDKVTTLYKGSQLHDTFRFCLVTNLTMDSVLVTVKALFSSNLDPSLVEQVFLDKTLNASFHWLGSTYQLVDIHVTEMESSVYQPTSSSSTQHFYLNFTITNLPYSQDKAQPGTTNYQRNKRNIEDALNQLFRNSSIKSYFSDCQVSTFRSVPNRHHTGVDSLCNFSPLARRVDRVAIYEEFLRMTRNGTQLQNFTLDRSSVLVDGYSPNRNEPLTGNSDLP

human MUC16 = biological target: T7, human MUC16 (human); experiment: binding kinetics, sensorgrams in RU in FIG. 14B, model printed: Kinetics 1:1; form of the MUC16 antigen not given
T7 construct: also called MUC16 antigen of the kinetic assay

T2 sequence (Q07011 24-255): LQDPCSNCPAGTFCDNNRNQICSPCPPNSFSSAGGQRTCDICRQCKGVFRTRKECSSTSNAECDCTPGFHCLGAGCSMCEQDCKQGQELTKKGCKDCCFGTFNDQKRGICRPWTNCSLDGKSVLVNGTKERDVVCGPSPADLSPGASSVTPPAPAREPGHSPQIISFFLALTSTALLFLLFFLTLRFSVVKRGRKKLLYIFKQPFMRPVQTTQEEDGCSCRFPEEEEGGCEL

| Binder | EC50 (read off the curve) (ROR1 on cells) | EC50 (read off the curve) (4-1BB on cells) | EC50 (human MUC16 on cells [1]) | binding result (huMUC16, AA14198-14507) | binding result (huMUC16, AA13789-14451) | further results |
| --- | --- | --- | --- | --- | --- | --- |
| B1 | ~0.03 nM | ~0.2 nM | – | – | – | – |
| B2 | ~0.3 nM | ~0.3 nM | – | – | – | – |
| B3 | – | – | 0.389 nM | no binding (tested: 100 nM) | binds | EC50 [2]: 0.277 nM; EC50 (human MUC16 on cells [3]): 0.38 nM; EC50 (human MUC16 on cells [4]): 0.125 nM |
| B4 | – | ~0.2 nM | – | – | – | – |
| B5 | – | – | 0.347 nM | no binding (tested: 100 nM) | binds | – |
| B6 | – | – | 0.179 nM | no binding (tested: 100 nM) | binds | Kd (human MUC16): 26.9 nM; koff (human MUC16): 0.00697 s⁻¹; kon (human MUC16): 260000 M⁻¹ s⁻¹; EC50 [2]: 0.156 nM; EC50 (human MUC16 on cells [3]): 0.242 nM; EC50 (human MUC16 on cells [4]): 0.0978 nM |
| B7 | ~0.2 nM | ~0.3 nM | – | – | – | – |
| B8 | ~0.08 nM | ~0.1 nM | – | – | – | – |
